Reference: patent US20210398607A1, “METHODS FOR DESIGNING ANTIBODY SMALL-MOLECULE CONJUGATES” (priority 2020, published 2021)
Numbering of substitutions follows the chain as printed. Names and notes keep the numbering of the source. “Also recorded” adds a separate entry of the source.

Experiments:
[1] = molecular target: T1, mSA (monomeric streptavidin construct), wild type; experiment: SPR
T1 construct: also called mSAWT
T1 chain: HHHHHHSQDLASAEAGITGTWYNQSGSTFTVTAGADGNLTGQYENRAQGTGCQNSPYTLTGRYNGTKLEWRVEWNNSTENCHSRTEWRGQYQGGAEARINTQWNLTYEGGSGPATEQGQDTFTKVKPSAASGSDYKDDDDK

[2] = molecular target: mSA (monomeric streptavidin, mSAWT) (Streptomyces avidinii; Rhizobium etli, UniProt P22629+Q8KKW2); experiment: SPR binding against mSAWT
Source text: Smt3 SUMO protein has an unstructured N-terminus and it was hypothesized this would minimize the interaction between the protein components.

[3] = for aggregation / monomer stability on SEC: SEC traces
Experimental: Two additional rounds of CDR residue mutability analysis were performed followed by in-parallel combinatorial designs on v149 until no further CDR mutations were predicted to be energetically favorable. Mutations accumulated in previous rounds of design were kept intact in subsequent rounds.

B1: 2X89.A-CCAA-biotin57 v37 (VHH)
VHH: QVQLQESGGGLVQAGGSLRLSCAASGYTDSRYAMGWYRQAPGKEREWVARISAGRDCTYYADSVKGRFTFSQDNAKNTVYLQMDSLKPEDTAVYYCATDIPLQATLITAKGGDGFRYWGQGTQVTVSS
B1: binds [1].

B2: 2X89.A-CCAA-biotin57: nanobody 2X89.A, intra-CDR disulfide replaced by two alanines, biotin conjugated to site 57, SEQ ID NO:10 (conjugate)
VHH: QVQLQESGGGSVQAGGSLRLSCAASGYTDSRYAMAWFRQAPGKEREWVARINSGRDCTYYADSVKGRFTFSQDNAKNTVYLQMDSLEPEDTATYYCATDIPLRARDIVAKGGDGFRYWGQGTQVTVSSHHHHHH
With B2 the “koff / dissociation rate, in words” value ([2]; mSAWT) was “especially slow dissociation rate; also recorded: slightly better than the best designed 4NBX.B variant v186_Fr” and the “aggregation / monomer stability on SEC” value [3] was “aggregated obviously”.

B3: 4NBX.B-biotin103 v186_Fr: v186 plus framework mutations A12V/F37Y, SEQ ID NO:6 (conjugate)
VHH: QVQLQESGGGLVQAGGSLRLSCAASGRTFSRSPMAWYRQPPGKEREFVAAGSSTGTTTYYADSVKGRFTISRDNAKNTVYLQMNSLKPEDTAVYYCAAAPLGCARKFAESAYWGQGTQVTVSSHHHHHH
With B3 the “aggregation / monomer stability on SEC” value [3] was “significantly reduced aggregation” and the “re-aggregation of collected fractions excluding the aggregates peak” value ([3]; rerun on SEC) was “did not re-aggregate”.

B4: 4NBX.B-biotin103 v186_Fr + 1: v186_Fr with biotin103 moved to +1 position on CDR3, SEQ ID NO:7 (conjugate)
VHH: B3 VHH with C103A, A104C
modifications: biotin conjugated; 4NBX.B-biotin103 v186_Fr +1
In the case of B4, the “KD / measured affinity against mSAWT, comparison in words” value [2] is reported as “minimally different from the wildtype v186_Fr”.

B5: 4NBX.B-biotin103 v186_Fr − 1: v186_Fr with biotin103 moved to −1 position on CDR3, SEQ ID NO:8 (conjugate)
VHH: B3 VHH with G102C, C103A
modifications: biotin conjugated; 4NBX.B-biotin103 v186_Fr -1
With B5 the “KD / measured affinity against mSAWT, comparison in words” value [2] was “minimally different from the wildtype v186_Fr”.

B6: Wildtype 4NBX.B: nanobody scaffold, chain B of PDB structure 4NBX, SEQ ID NO:1, unconjugated (protein)
VHH: QVQLQESGGGLAQAGGSLRLSCAASGRTFSMDPMAWFRQPPGKEREFVAAGSSTGRTTYYADSVKGRFTISRDNAKNTVYLQMNSLKPEDTAVYYCAAAPYGANWYRDEYAYWGQGTQVTVSSHHHHHH
modifications: 4NBX.B-WT
In the case of B6, the “binding signal to mSA” value ([2]; concentrations up to 100 nM) is reported as “did not show binding signal”.

B7: 4NBX.B-biotin103: nanobody 4NBX.B A103C (SEQ ID NO:2) conjugated with biotin C2 maleimide at site 103 (conjugate)
VHH: B6 VHH with A103C
For B7, the “aggregation / monomer stability on SEC” value [3] was “single peaks”.

B8: 4NBX.B-biotin103 v149: 4NBX.B-biotin103 with M31R/D32S/N104A/W105R, SEQ ID NO:4; the WT line of Table 3 (conjugate)
VHH: B6 VHH with M31R, D32S, A103C, N104A, W105R
With B8 the “aggregation / monomer stability on SEC” value [3] was “very prone to aggregation”.
